From patent US20060217306A1, “Systemic treatment of infections with defensins” (Novozymes A/S, priority 2005, published 2006)
Values joined by “and” are separate entries in the source; they are usually repeats but may differ in a detail not shown here. Equal values may be shown once. No end group written: not given here.

Legend:
[1] = Stability in human serum; residual activity by radial diffusion assay with Staphylococcus carnosus; assay type: in vitro ADME; conditions: 37° C.; for Activity (%) 10% serum / Activity (%) 90% serum: 100 mg/L; for Activity (%) 10% serum: 10% human serum; for Activity (%) 90% serum: 90% human serum
Method: To assess the stability of the defensins in human serum, according to the invention, a solution of 100 mg/L of a defensin in fresh normal human serum is incubated at 37 degrees Celsius for 0, 1, 3, 6 and 24 hours. Residual activity is measured by performing radial diffusion assays with a sensitive indicator organism (e.g., Staphylococcus carnosus or E. coli); by performing a quantification by HPLC, LCMSMS; or by performing various ELISA techniques well known to a person skilled in the art.
To assess serum stability, Plectasin (100 mg/L) was incubated at 37° C. in 10% and 90% fresh normal human serum for 0, 1, 3, 6 & 24 hours. Residual activities were measured by performing radial diffusion assays with Staphylococcus carnosus.

S. pneumoniae 68034 = test: Survival after peritoneal infection with S. pneumoniae 68034; assay type: in vivo; conditions: s.c. 10 mg/kg BID for one or two days, groups of eight mice; vehicle 0/8, P<0.0002
Method: (§1) Three different pneumococcal strains were employed in this study (6A, D39 and 68034). Three mice per sampling point were inoculated with a specific S. pneumoniae i.p., and were treated 1 hour later with a single dose of 10 mg/kg Plectasin. Peritoneal wash was sampled for microbial counts prior to treatment (T=0), and at T=2 and T=5 hrs after. The colony counts are listed below for all three strains.
Treatment with Plectasin s.c. 10 mg/kg was initiated one hour after inoculation as described in Example 4A above. The following dosing regimens were investigated in groups of eight mice: vehicle treatment, Plectasin BID for one or two days. The survival fraction at seven days post-infection was 6/8 for Plectasin treated mice and 0/8 for vehicle treated mice (P<0.0002).

S. pneumoniae strain 6A = test: Treatment of pneumococcal peritoneal infection, colony counts in peritoneal wash, strain 6A; assay type: in vivo, mice; conditions: for Colony counts: peritoneal wash, individual mice
Method: as §1

[2] = system: S. pneumoniae strain 68034; test: Treatment of pneumococcal peritoneal infection, colony counts in peritoneal wash, strain 68034; assay type: in vivo, mice; conditions: for Colony counts: strain 68034, peritoneal wash, individual mice
Method: as §1

S. pneumoniae strain D39 [3] = test: Treatment of pneumococcal peritoneal infection, colony counts in peritoneal wash, strain D39; assay type: in vivo, mice; conditions: for Colony counts: strain D39, peritoneal wash, individual mice
Method: as §1

S. pneumoniae strain D39 [4] = test: Treatment of pneumococcal pneumonia, colony counts in lung homogenates; assay type: in vivo, mice; conditions: for Colony counts in lung homogenates: one day after treatment, individual mice
Method: Six to seven mice per sampling point (12 in the no-treatment group) were inoculated with S. pneumoniae (data only shown for strain D39) via the nasopharynx, and 24 hrs later the animals received Plectasin 10 mg/kg or penicillin 30 mg/kg.

S. pneumoniae D39 = test: Survival after peritoneal infection with S. pneumoniae D39; assay type: in vivo; conditions: groups of eight mice, vehicle 0/8
Method: as §1
Treatment with Plectasin s.c. 10 mg/kg was initiated one hour after inoculation as described in Example 4A above. The following dosing regimens were investigated in groups of eight mice: vehicle treated, Plectasin once daily (OD) for one day, twice daily (BID) for one day or BID for two days. […] The survival fraction of the vehicle treated control group was 0/8 mice (P<0.0002).

[5] = Systemic availability: in vivo kinetics, serum concentration by LCMSMS; set-up: species or system NMRI female mice; conditions: for Serum concentration: 14 mg/kg single dose, individual mice; for Maximum observed mean concentration / Time of maximum observed mean concentration: serum
Method: The in vivo kinetics of plectasin was investigated in NMRI female mice, 25-30 gram (Harlan Scandinavia Aps), after a single 14 mg/kg dose, administered by either intravenous, subcutaneous or intraperitoneal routes. Plectasin concentrations in serum samples were determined 5, 15, 30, 60, 120 and 180 minutes after dosing, using two mice at each time point. At each time point, urine was collected, then mice were anaesthetized with CO2 and blood collected. The blood samples were centrifuged and serum collected. The concentration of plectasin in serum and urine were determined by LCMSMS.
The maximum observed mean concentrations for i.v., s.c. and i.p. dosing were: 95 mg/L after 5 min., 55 and 34 mg/L after 30 min., respectively.

[6] = Single dose intravenous toxicity study in the mouse / maximum tolerable dose; assay type: in vivo; conditions: 125 mg/kg single i.v. dose
Method: The study, to determine the maximum tolerable dose in mice, should be initiated with a sighting study to select the appropriate dose level for the main study. For example, six dose levels could be investigated using one male and one female mouse at each dose level.
On the basis of any signs of toxicity, the selected dose is administered to five male and five female mice as a single intravenous dose in a dose volume of 10 ml/kg. The dose should be administered slowly in the tail vein (e.g., 20 seconds per injection using a 1 ml syringe with a 25G hypodermic needle). All animals should be observed for any signs of toxicity after 15 minutes, 1 hour, 3 hours, 6 hours and 24 hours after administration.
A single intravenous dose was administered slowly in the tail vein (20 seconds per injection) using a 1 ml syringe with a 25G hypodermic needle to 5 male and 5 female mice. […] Body weight was recorded on Day 1, 2, 8 and 15. At termination of the study gross necropsy examination of all animals was carried out.

[7] = 2 hours after single dose 10 mg/kg, 10 mg/kg
[8] = 5 hours after single dose 10 mg/kg, 10 mg/kg

With “Plectasin: Defensin shown as amino acids 1 to 40 of SEQ ID NO: 2 in international patent application WO 03/044049; defensin antimicrobial peptide (GFGCNGPWDEDDMQCHNHCKSIKGYKGGYCAKGGFVCKCY; ends and bridges not checked; cysteine pairing not given here; UniProt Q53I06 56-95, looked up)” the “Activity (%) 10% serum” value ([1]; 0 hours) was 100%, the “Activity (%) 10% serum” value ([1]; 1 hour) was “˜100%” and the “Activity (%) 10% serum” value ([1]; 3 hours) was “˜100%”. For the same substance, the “Activity (%) 10% serum” value ([1]; 6 hours) was “˜100%”, the “Activity (%) 10% serum” value ([1]; 24 hours) was “˜100%” and the “Activity (%) 90% serum” value ([1]; 0 hours) was 100%. For the same substance, the “Activity (%) 90% serum” value ([1]; 1 hour) was “˜100%”, the “Activity (%) 90% serum” value ([1]; 3 hours) was “˜100%” and the “Activity (%) 90% serum” value ([1]; 6 hours) was “˜100%”. For the same substance, the “Activity (%) 90% serum” value ([1]; 24 hours) was “˜100%”, the “Residual activity (in words)” value ([1]; after 24 hours of incubation in 90% human serum) was “Full activity was retained” and the “Survival fraction at seven days post-infection” value (S. pneumoniae 68034) was 6/8. For the same substance, the “Colony counts compared to vehicle treated mice” value (S. pneumoniae strain 6A; 10 mg/kg, P<0.0001) was “significant lower”, the Colony counts (S. pneumoniae strain 6A; 0 hours (prior to treatment)) was 1.1E6 and 1.55E6 and 1E6 and the Colony counts (S. pneumoniae strain 6A; [7]) was 3.5E5 (2×) and 1.78E5. The Colony counts (S. pneumoniae strain 6A; [8]) was 2.13E4 and 1.43E3 and 1.45E3, the “Colony counts compared to vehicle treated mice” value ([2]; strain 68034, 10 mg/kg, P<0.0001) was “significant lower” and the Colony counts ([2]; 0 hours (prior to treatment)) was 3E5 and 5.5E5 and 3.5E5. For the same substance, the Colony counts [2, 7] was 3.25E4 (2×) and 1.5E4, the Colony counts [2, 8] was 4E2 and 1E2 and 7.5E1 and the “Colony counts compared to vehicle treated mice” value (S. pneumoniae strain D39 [3]; strain D39, 10 mg/kg, P<0.0001) was “significant lower”. The Colony counts (S. pneumoniae strain D39 [3]; 0 hours (prior to treatment)) was 3.25E6 and 1.8E6 (2×), the Colony counts (S. pneumoniae strain D39 [3]; [7]) was 2.75E4 and 1.1E4 and 2E4 and the Colony counts (S. pneumoniae strain D39 [3]; [8]) was 2.5E2 and 3.5E2 and 1E2. For the same substance, the “Colony counts compared to no treatment” value (S. pneumoniae strain D39 [4]; strain D39, 10 mg/kg) was “significant reduction”, the “Colony counts in lung homogenates” value (S. pneumoniae strain D39 [4]; strain D39, 10 mg/kg given 24 hrs after inoculation) was 3E1 (2×) and 5.25E3 and 6.75E2 and 9.75E4 and 2.25E3 and 1.5E2 and the “Survival over the 7-day study period” value (S. pneumoniae D39; s.c. 10 mg/kg BID for two days) was “All mice treated with Plectasin survived”. For the same substance, the “Survival over the 7-day study period” value (S. pneumoniae D39; s.c. 10 mg/kg once daily (OD) for one day) was “All mice treated with Plectasin survived”, the “Survival over the 7-day study period” value (S. pneumoniae D39; s.c. 10 mg/kg twice daily (BID) for one day) was “except for one mouse” and the Terminal half-life ([5]; 14 mg/kg, mice, estimated) was 49 to 54 min. The Serum concentration ([5]; IP, 5 min, 14 mg/kg) was 9400 ng/mL and 7200 ng/mL, the Serum concentration ([5]; IP, 15 min, 14 mg/kg) was 26000 ng/mL and 31600 ng/mL and the Serum concentration ([5]; IP, 30 min, 14 mg/kg) was 32500 ng/mL and 35400 ng/mL. The Serum concentration ([5]; IP, 60 min, 14 mg/kg) was 27700 ng/mL and 14300 ng/mL, the Serum concentration ([5]; IP, 120 min, 14 mg/kg) was 10900 ng/mL and 20300 ng/mL and the Serum concentration ([5]; IP, 180 min, 14 mg/kg) was 2600 ng/mL and 5600 ng/mL. The Serum concentration ([5]; IV, 5 min, 14 mg/kg) was 92100 ng/mL and 97900 ng/mL, the Serum concentration ([5]; IV, 15 min, 14 mg/kg) was 58800 ng/mL and 58100 ng/mL and the Serum concentration ([5]; IV, 30 min, 14 mg/kg) was 35700 ng/mL and 27300 ng/mL. For the same substance, the Serum concentration ([5]; IV, 60 min, 14 mg/kg) was 14900 ng/mL and 15600 ng/mL, the Serum concentration ([5]; IV, 120 min, 14 mg/kg) was 5300 ng/mL and 4900 ng/mL and the Serum concentration ([5]; IV, 180 min, 14 mg/kg) was 2300 ng/mL and 3500 ng/mL. The Serum concentration ([5]; SC, 5 min, 14 mg/kg) was 20300 ng/mL and 25400 ng/mL, the Serum concentration ([5]; SC, 15 min, 14 mg/kg) was 49400 ng/mL and 56600 ng/mL and the Serum concentration ([5]; SC, 30 min, 14 mg/kg) was 50300 ng/mL and 60000 ng/mL. For the same substance, the Serum concentration ([5]; SC, 60 min, 14 mg/kg) was 24800 ng/mL and 27200 ng/mL, the Serum concentration ([5]; SC, 120 min) was 29800 ng/mL and the Serum concentration ([5]; SC, 180 min, 14 mg/kg) was 4600 ng/mL and 7200 ng/mL. For the same substance, the “Maximum observed mean concentration” value ([5]; i.p., 14 mg/kg) was 34 mg/L, the “Time of maximum observed mean concentration” value ([5]; i.p., 14 mg/kg) was 30 min and the Concentration-time behavior ([5]; i.v. bolus administration, WinNonlin) was “two-compartment behavior”. For the same substance, the “Maximum observed mean concentration” value ([5]; i.v., 14 mg/kg) was 95 mg/L, the “Time of maximum observed mean concentration” value ([5]; i.v., 14 mg/kg) was 5 min and the “Maximum observed mean concentration” value ([5]; s.c., 14 mg/kg) was 55 mg/L. The “Time of maximum observed mean concentration” value ([5]; s.c., 14 mg/kg) was 30 min, the “Finding at the injection site” value ([6]; 10 ml/kg, 15 minutes after treatment, 5 male and 5 female mice) was “all animals had a discoloration at the injection site” and the “Other signs of toxicity” value ([6]; 10 ml/kg, observed over 14 days) was “No other signs of toxicity were observed”. The Gross necropsy ([6]; at termination of the study) was “no abnormalities”.

With penicillin [reference compound] the “Colony counts compared to no treatment” value (S. pneumoniae strain D39 [4]; strain D39, 30 mg/kg) was “significant reduction” and the “Colony counts in lung homogenates” value (S. pneumoniae strain D39 [4]; strain D39, 30 mg/kg given 24 hrs after inoculation) was 7.5E1 (3×) and 4.5E3 and 2.25E4 and 4.89E5.
